Assay results taken from US20100055033A1 (GOVERNMENT OF THE UNITED STATES OF AMERICA AS REPRESENTED …, published 2010).
Blank lines part the entries; values can stand above or below the binder they belong to.

Tests used:
human insulin = human insulin (human, UniProt P01308 25-54; P01308 90-110, limits assumed); assay: screening of a human naive phage library; assay not named here
[1] = target: T1, human insulin-like growth factor II (human, UniProt P01344 25-91); assay: ELISA on IGF-II, one Fab concentration (not given)
T1 construct: also called IGF-II; IGF II
T1 sequence (P01344 25-91 limits assumed): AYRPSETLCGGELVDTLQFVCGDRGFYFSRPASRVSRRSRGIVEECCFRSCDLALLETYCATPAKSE
Method: (§1) ELISA Binding Assay. Antigen was coated on narrow-well, 96-well plate at 50 ng/well overnight at 4° C. For phage ELISA, 10¹⁰ phage from each round of panning was incubated with antigen. Bound phage was detected with anti-M13-HRP polyclonal antibody (Pharmacia, Piscataway, N.J.). For soluble Fab binding assay, anti-Flag HRP conjugate was used to detect the binding.

[2] = target: T2, recombinant human insulin-like growth factor I (human, UniProt P05019 49-118); assay: ELISA on IGF-I, one Fab concentration (not given), duplicate bars
T2 construct: also called IGF-I; IGF I
T2 sequence (P05019 49-118 limits assumed): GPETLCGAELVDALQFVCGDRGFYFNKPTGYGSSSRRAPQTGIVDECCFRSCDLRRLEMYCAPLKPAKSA
Method: as §1

[3] = target: T2, recombinant human insulin-like growth …; assay: competition ELISA: m708 at 400 nM against the binding of IGF-I (50 nM) to soluble IGF-IR
[4] = target: T1, human insulin-like growth factor II; assay: method not stated (FIG. 9)
[5] = target: T2, recombinant human insulin-like growth …; assay: ELISA, Fab titrated on IGF-I
Method: as §1

[6] = target: T2, recombinant human insulin-like growth …; assay: competition ELISA: m706 at 100 nM against the binding of IGF-I (50 nM) to soluble IGF-IR

Sequence of human insulin (P01308 25-54 limits assumed, chain 1 of 2): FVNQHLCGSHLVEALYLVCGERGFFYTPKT
Sequence of human insulin (P01308 90-110 limits assumed, chain 2 of 2): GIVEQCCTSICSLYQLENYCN

binding result [5]: binds
B4: m708.2 Fab (Fab, V domains shown)
VH: QVQLQQSGAEVKKPGSSVKVSCKASGGTFSSYAISWVRQAPGQGLEWMGGIIPILGIANYAQKFQGRVTITADESTSTAYMELSSLRSEDTAVYYCARGPRGYSYNFDYWGQGTLVTVSS
VL: DIQMTQSPSSLSASVGDRVTIACRASQTISRYLNWYQQKPGKAPKLLIYAASSLQSGVSSRFSGSGSGTEFTLTISSLQPEDFATYFCQQTYSPPITFGQGTRLEIKR
notes: also called clone m708.2

binding result (human insulin): no binding
binding result [6]: binds
binding result [1]: no binding
B5: m706 Fab (Fab, V domains shown)
VH: EVQLVQSGVDVKKPGSSVKVSCKASGGTFSSYAISWVRQAPGQGLEWMGGIIPIFGTANYAQKFQGRVTITADESASTAYMELSSLRSEDTAVYYCASGYEGPLWAFDIWGQGTMVTVSS
VL: SQSVLTQPPSVSAAPGQRVSISCSGSSSNIGNYHVSWYQHLPGRAPKLLIYDNSKRPSGIPDRFSGSKSGTSATLDITGLQTGDEGDYYCATWDTSLRWVFGTGTKVTVL
notes: also called No. 6; IGF-I specific mAb

Second part, the binder before the results:

B1: m705 Fab (Fab, V domains shown)
VH: QVQLVQSGVEVKKPGASVKVPCKASGYTFTSYYMHWVRQAPGQGLEWMGIINPSGGSTSYAQKFQGRVTMTRDTSTSTVYMELSSLRSEDTAVYYCARDDFWSGAVGMDVWGQGTTVTVSS
VL: DIQMTQSPATLSLSPGERATLSCRASQDVGSDLAWYQQKPGQPPRLLVSDASNRATGIPARFSGSGSGTDFKLTINSLEPEDSAVYYCQQRRRWPPGATFGGGTKVEIKR
notes: also called No. 5; IGF-I specific mAb
binding result (human insulin): no binding
binding result [1]: no binding
binding result [2]: binds

B2: m708 Fab (Fab, V domains shown)
VH: QVQLQQSGAEVKKPGSSVKVSCKASGGTFSSYAISWVRQAPGQGLEWMGGIIPILGIANYAQKFQGRVTITADESTSTAYMELSSLRSEDTAVYYCARGPRGYSYNFDYWGQGTLVTVSS
VL: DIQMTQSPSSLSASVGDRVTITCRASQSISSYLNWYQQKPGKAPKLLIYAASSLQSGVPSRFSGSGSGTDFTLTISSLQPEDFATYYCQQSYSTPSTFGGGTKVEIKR
notes: also called No. 8
binding result [3]: binds

B3: m708.2 IgG1 (antibody, V domains shown)
VH: QVQLQQSGAEVKKPGSSVKVSCKASGGTFSSYAISWVRQAPGQGLEWMGGIIPILGIANYAQKFQGRVTITADESTSTAYMELSSLRSEDTAVYYCARGPRGYSYNFDYWGQGTLVTVSS
VL: DIQMTQSPSSLSASVGDRVTIACRASQTISRYLNWYQQKPGKAPKLLIYAASSLQSGVSSRFSGSGSGTEFTLTISSLQPEDFATYFCQQTYSPPITFGQGTRLEIKR
notes: also called IgG708.2
Kd [4]: ~0.08 nM
